Measured values reported in paper PMC4180932, “Reorganisation of the Salivary Mucin Network by Dietary Components: Insights from Green Tea Polyphenols” (PLOS One, 2014).
Blank lines part the entries; values can stand above or below the molecule they belong to.

How the values were obtained:
[1] = biological target: CT5B, recombinant C-terminal construct of MUC5B (D4-B-C-CK domains, residues 4958-5765) (human); assay: SDS-PAGE; purified recombinant protein seen as monomer and dimer; gels of gradient fractions, silver stained (NT5B) or Coomassie stained (CT5B)
[2] = biological target: the molecule itself; assay: as above

stoichiometry N [1]: 2
Molecule: CT5B, recombinant C-terminal construct of MUC5B (D4-B-C-CK domains, residues 4958-5765) (domain or fragment)

B1: NT5B, recombinant N-terminal construct of MUC5B (D1-D2-D′-D3 domains, residues 26-1304) (domain or fragment, human, UniProt Q9HC84 26-1304, looked up)
chain: QGPVEPSWENAGHTMDGGAPTSSPTRRVSFVPPVTVFPSLSPLNPAHNGRVCSTWGDFHYKTFDGDVFRFPGLCNYVFSEHCRAAYEDFNVQLRRGLVGSRPVVTRVVIKAQGLVLEASNGSVLINGQREELPYSRTGLLVEQSGDYIKVSIRLVLTFLWNGEDSALLELDPKYANQTCGLCGDFNGLPAFNEFYAHNARLTPLQFGNLQKLDGPTEQCPDPLPLPAGNCTDEEGICHRTLLGPAFAECHALVDSTAYLAACAQDLCRCPTCPCATFVEYSRQCAHAGGQPRNWRCPELCPRTCPLNMQHQECGSPCTDTCSNPQRAQLCEDHCVDGCFCPPGTVLDDITHSGCLPLGQCPCTHGGRTYSPGTSFNTTCSSCTCSGGLWQCQDLPCPGTCSVQGGAHISTYDEKLYDLHGDCSYVLSKKCADSSFTVLAELRKCGLTDNENCLKAVTLSLDGGDTAIRVQADGGVFLNSIYTQLPLSAANITLFTPSSFFIVVQTGLGLQLLVQLVPLMQVFVRLDPAHQGQMCGLCGNFNQNQADDFTALSGVVEATGAAFANTWKAQAACANARNSFEDPCSLSVENENYARHWCSRLTDPNSAFSRCHSIINPKPFHSNCMFDTCNCERSEDCLCAALSSYVHACAAKGVQLSDWRDGVCTKYMQNCPKSQRYAYVVDACQPTCRGLSEADVTCSVSFVPVDGCTCPAGTFLNDAGACVPAQECPCYAHGTVLAPGEVVHDEGAVCSCTGGKLSCLGASLQKSTGCAAPMVYLDCSNSSAGTPGAECLRSCHTLDVGCFSTHCVSGCVCPPGLVSDGSGGCIAEEDCPCVHNEATYKPGETIRVDCNTCTCRNRRWECSHRLCLGTCVAYGDGHFITFDGDRYSFEGSCEYILAQDYCGDNTTHGTFRIVTENIPCGTTGTTCSKAIKLFVESYELILQEGTFKAVARGPGGDPPYKIRYMGIFLVIETHGMAVSWDRKTSVFIRLHQDYKGRVCGLCGNFDDNAINDFATRSRSVVGDALEFGNSWKLSPSCPDALAPKDPCTANPFRKSWAQKQCSILHGPTFAACRSQVDSTKYYEACVNDACACDSGGDCECFCTAVAAYAQACHDAGLCVSWRTPDTCPLFCDFYNPHGGCEWHYQPCGAPCLKTCRNPSGHCLVDLPGLEGCYPKCPPSQPFFNEDQMKCVAQCGCYDKDGNYYDVGARVPTAENCQSCNCTPSGIQCAHSLEACTCTYEDRTYSYQDVIYNTTDGLGACLIAICGSNGTIIRKAVACPG
notes: MUC5B, human, D1-D2-D′-D3 domains, residues 26-1304; Purified as a mixture of monomer and dimer (75 and 150 kDa as printed); also called N-terminal MUC5B protein
stoichiometry N [2]: 2
